Data as given in patent publication US11357816B2, “Ligand controling interaction between gags with their effector molecules and use thereof” (CENTRE NATIONAL DE LA RECHERCHE SCIENTIFIQUE (CNRS), priority 2018, dated 2022).

Biological target: T1, Sema-3A (Mus musculus, UniProt O08665)
T1 construct: Visual cortex of adult mice were dissected and lysed in homogenization buffer; from tissue; host or cells: adult mouse visual cortex
T1 sequence (O08665 21-772): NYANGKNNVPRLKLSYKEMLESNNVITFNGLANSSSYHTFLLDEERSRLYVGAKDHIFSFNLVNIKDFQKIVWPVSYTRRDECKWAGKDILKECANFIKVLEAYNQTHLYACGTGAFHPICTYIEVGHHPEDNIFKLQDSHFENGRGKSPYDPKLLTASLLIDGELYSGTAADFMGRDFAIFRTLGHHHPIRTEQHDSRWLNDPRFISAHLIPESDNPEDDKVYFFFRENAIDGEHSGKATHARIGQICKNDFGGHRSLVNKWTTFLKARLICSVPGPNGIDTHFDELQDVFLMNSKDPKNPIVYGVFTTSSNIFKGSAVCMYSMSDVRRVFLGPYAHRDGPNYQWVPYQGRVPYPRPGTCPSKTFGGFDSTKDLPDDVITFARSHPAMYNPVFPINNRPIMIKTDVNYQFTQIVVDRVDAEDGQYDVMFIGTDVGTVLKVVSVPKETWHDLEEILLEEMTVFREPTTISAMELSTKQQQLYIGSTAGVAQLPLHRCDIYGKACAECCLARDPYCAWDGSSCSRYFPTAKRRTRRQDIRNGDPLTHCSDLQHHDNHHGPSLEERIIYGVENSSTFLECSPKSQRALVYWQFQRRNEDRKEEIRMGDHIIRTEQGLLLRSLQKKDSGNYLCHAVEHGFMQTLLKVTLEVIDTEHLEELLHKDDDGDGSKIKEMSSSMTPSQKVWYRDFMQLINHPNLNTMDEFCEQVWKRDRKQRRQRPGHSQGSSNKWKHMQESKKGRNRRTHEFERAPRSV
Experiment: Ligand pull-down with lysates of adult mouse visual cortex, western blot for Sema-3A
Format: binding
Settings: ligand pre-incubated with 50 nmol peptide
Experimental: Visual cortex of adult mice were dissected and lysed in homogenization buffer (0.32 M sucrose, 5 mM HEPES, 10 mM MgCl2 and protease inhibitors). Samples were centrifuged (8 min, 1700 g) at 4° C. and the supernatant was incubated 2 hours at 37° C. with 5 nmol of GAG mimics. For the competition assay, ligands were pre-incubated 30 min with 50 nmol of RK-, AA- or SC-peptide at 37° C. prior to incubation overnight at 4° C. with streptavidin-coupled Dynabeads (Life technologies). The loaded beads were washed with homogenization buffer and heated 10 min at 95° C. in Laemmli buffer (with DTT) to detach proteins for western blot analysis.
Immunoprecipitated proteins were separated on NuPAGE 4-12% Bis-Tris pre-cast gels (Invitrogen) for 1 h at 200 V and transferred onto a methanol-activated PVDF membrane at 400 mA for 1 h. Membranes were blocked with 5% non-fat dry milk for 1 h before incubation with primary antibody anti-Sema3A (rabbit, 1/1000, Millipore) overnight at 4° C. […] Membranes were digitized with an LAS-4000 (Fujifilm) and quantified by densitometry with ImageJ.
To measure the in vivo activity and specificity of biotinylated GAG mimics, we performed biochemical and immunohistochemical analyses. […] We first focused on Sema-3A, as cortical Otx2 levels are too low to be reliably detected biochemically.

RKQRRERTTFTRAQL [RKpep]
disruption of Sema-3A interaction with (EC′AC′)6 by competing peptide: specifically disrupts Sema-3A interaction
